What follows are binders tested against T1, Taq DNA polymerase (Thermus aquaticus, UniProt P19821 1-832) (assay: AMC sensor, antibody immobilised).
T1 construct: also called Taq enzyme; Taq DNA enzyme
T1 sequence (P19821 whole entry): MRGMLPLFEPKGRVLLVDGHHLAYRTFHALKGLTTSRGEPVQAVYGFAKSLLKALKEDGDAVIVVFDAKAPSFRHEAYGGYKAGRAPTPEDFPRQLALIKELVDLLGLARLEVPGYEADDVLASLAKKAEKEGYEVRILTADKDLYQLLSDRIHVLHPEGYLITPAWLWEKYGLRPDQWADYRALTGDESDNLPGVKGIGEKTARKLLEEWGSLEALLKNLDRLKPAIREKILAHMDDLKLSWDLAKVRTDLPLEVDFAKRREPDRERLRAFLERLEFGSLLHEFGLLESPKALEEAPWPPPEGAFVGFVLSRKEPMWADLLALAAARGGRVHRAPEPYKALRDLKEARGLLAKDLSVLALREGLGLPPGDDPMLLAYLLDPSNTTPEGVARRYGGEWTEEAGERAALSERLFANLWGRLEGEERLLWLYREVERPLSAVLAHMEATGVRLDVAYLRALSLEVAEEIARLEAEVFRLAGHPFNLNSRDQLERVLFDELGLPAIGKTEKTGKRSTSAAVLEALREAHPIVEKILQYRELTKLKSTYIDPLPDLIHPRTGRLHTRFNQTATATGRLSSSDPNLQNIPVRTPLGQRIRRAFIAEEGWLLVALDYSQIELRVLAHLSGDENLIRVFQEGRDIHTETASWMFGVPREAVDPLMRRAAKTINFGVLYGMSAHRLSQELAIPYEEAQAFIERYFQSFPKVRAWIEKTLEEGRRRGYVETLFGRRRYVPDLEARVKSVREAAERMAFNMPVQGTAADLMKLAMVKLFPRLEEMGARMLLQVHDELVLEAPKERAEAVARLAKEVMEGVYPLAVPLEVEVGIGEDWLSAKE

| Kd [nM] | koff [s⁻¹] | kon [M⁻¹ s⁻¹] | Binder |
| --- | --- | --- | --- |
| 0.491 | 1.58e-05 | 32200 | Mutation 1-1 (antibody, V domains shown, Mutation 1 background; CDRs built) VH: QVQLQQPGAELVKPGASVRLSCQTSVDTFTTYYIYWVKQRPGEGLEWIGGINPTSNPVFNEKFKSKATLTVDTSSSTAYMQLSSLTSVDSAVYYCTRSIVRRGYYFDYWGQGTALTVSS VL: DIQMTQTTSSLSASLGDRVTISCRASQDINNYVNWYQQKPDGTIKLLIYYTSRLQSGVPSRFSGSGSGTDYSLTIANLEQEDIATYFCQQDDTIPITFGAGTKVELKR |
| 0.398 | 1.36e-05 | 34000 | Mutation 1-17 (antibody, V domains shown, Mutation 1 background; CDRs built) VH: QVQLQQPGAELVKPGASVRLSCQTSVNTFTTYYIYWVKQRPGEGLEWIGGLNPTSGGPVFNEKFKSKATLTVDTSSSTAYMQLSSLTSVDSAVYYCTRSLIRRGYYFDYWGQGTALTVSS VL: DIQMTQTTSSLSASLGDRVTISCRASQDINNYINWYQQKPDGTIKLLIYYTSRLNSGLPSRFSGSGSGTDYSLTIANLEQEDIATYFCQQDDTLPLTFGAGTKVELKR |
| 0.022 | 2.05e-06 | 93400 | Mutation 1-12 (antibody, V domains shown, Mutation 1 background; CDRs built) VH: QVQLQQPGAELVKPGASVRLSCQTSVDTFSTYYIYWVKQRPGEGLEWIGGVNPTSNPVFNEKFKSKATLTVDTSSSTAYMQLSSLTSVDSAVYYCTRSVLRRGYYFDYWGQGTALTVSS VL: DIQMTQTTSSLSASLGDRVTISCRASQDIQNYVNWYQQKPDGTIKLLIYYTSRLHSGIPSRFSGSGSGTDYSLTIANLEQEDIATYFCQQDDTVPVTFGAGTKVELKR |
| 0.273 | 1.01e-05 | 37200 | Mutation 1-54 (antibody, V domains shown, Mutation 1 background; CDRs built) VH: QVQLQQPGAELVKPGASVRLSCQTSVNTFTTYYIYWVKQRPGEGLEWIGGLNPTSNPVFNEKFKSKATLTVDTSSSTAYMQLSSLTSVDSAVYYCTRSILRRGYYFDYWGQGTALTVSS VL: DIQMTQTTSSLSASLGDRVTISCRASQDIQNYVNWYQQKPDGTIKLLIYYTSRLNSGVPSRFSGSGSGTDYSLTIANLEQEDIATYFCQQDDTIPVTFGAGTKVELKR |
| 0.803 | 3.75e-05 | 46700 | Mutation 1-42 (antibody, V domains shown, Mutation 1 background; CDRs built) VH: QVQLQQPGAELVKPGASVRLSCQTSVETFSTYYIYWVKQRPGEGLEWIGGINPTSNPVFNEKFKSKATLTVDTSSSTAYMQLSSLTSVDSAVYYCTRSLLRRGYYFDYWGQGTALTVSS VL: DIQMTQTTSSLSASLGDRVTISCRASQDIQNYVNWYQQKPDGTIKLLIYYTSRLQSGLPSRFSGSGSGTDYSLTIANLEQEDIATYFCQQDDTLPLTFGAGTKVELKR |
| 0.384 | 3.72e-05 | 97900 | Mutation 1-48 (antibody, V domains shown, Mutation 1 background; CDRs built) VH: QVQLQQPGAELVKPGASVRLSCQTSVETFSTYYIYWVKQRPGEGLEWIGGINPTSNPVFNEKFKSKATLTVDTSSSTAYMQLSSLTSVDSAVYYCTRSVLRRGYYFDYWGQGTALTVSS VL: DIQMTQTTSSLSASLGDRVTISCRASQDIQNYVNWYQQKPDGTIKLLIYYTSRLQSGVPSRFSGSGSGTDYSLTIANLEQEDIATYFCQQDDTVPLTFGAGTKVELKR |
| 0.768 | 3.85e-05 | 50200 | Mutation 1-36 (antibody, V domains shown, Mutation 1 background; CDRs built) VH: QVQLQQPGAELVKPGASVRLSCQTSVETFSTYYIYWVKQRPGEGLEWIGGINPTSNPVFNEKFKSKATLTVDTSSSTAYMQLSSLTSVDSAVYYCTRSILRRGYYFDYWGQGTALTVSS VL: DIQMTQTTSSLSASLGDRVTISCRASQDIQNYVNWYQQKPDGTIKLLIYYTSRLQSGIPSRFSGSGSGTDYSLTIANLEQEDIATYFCQQDDTIPLTFGAGTKVELKR |
| 0.402 | 2.61e-05 | 65000 | Mutation 1-28 (antibody, V domains shown, Mutation 1 background; CDRs built; also called Mutation 148) VH: QVQLQQPGAELVKPGASVRLSCQTSVDTFSTYYIYWVKQRPGEGLEWIGGINPTSNPVFNEKFKSKATLTVDTSSSTAYMQLSSLTSVDSAVYYCTRSIVRRGYYFDYWGQGTALTVSS VL: DIQMTQTTSSLSASLGDRVTISCRASQDIQNYINWYQQKPDGTIKLLIYYTSRLHSGIPSRFSGSGSGTDYSLTIANLEQEDIATYFCQQDDTIPITFGAGTKVELKR |
| 0.285 | 1.42e-05 | 49700 | Mutation 1-2 (antibody, V domains shown, Mutation 1 background; CDRs built) VH: QVQLQQPGAELVKPGASVRLSCQTSVETFSTYYIYWVKQRPGEGLEWIGGLNPTSNPVFNEKFKSKATLTVDTSSSTAYMQLSSLTSVDSAVYYCTRSIIRRGYYFDYWGQGTALTVSS VL: DIQMTQTTSSLSASLGDRVTISCRASQDIQNYLNWYQQKPDGTIKLLIYYTSRLQSGLPSRFSGSGSGTDYSLTIANLEQEDIATYFCQQDDTIPLTFGAGTKVELKR |
| 0.677 | 4.5e-05 | 66400 | Mutation 1-18 (antibody, V domains shown, Mutation 1 background; CDRs built) VH: QVQLQQPGAELVKPGASVRLSCQTSVDTFTTYYIYWVKQRPGEGLEWIGGVNPTSNPVFNEKFKSKATLTVDTSSSTAYMQLSSLTSVDSAVYYCTRSILRRGYYFDYWGQGTALTVSS VL: DIQMTQTTSSLSASLGDRVTISCRASQDIQNYVNWYQQKPDGTIKLLIYYTSRLQSGIPSRFSGSGSGTDYSLTIANLEQEDIATYFCQQDDTIPVTFGAGTKVELKR |
| 0.362 | 2.49e-05 | 69000 | Mutation 1-57 (antibody, V domains shown, Mutation 1 background; CDRs built) VH: QVQLQQPGAELVKPGASVRLSCQTSVETFSTYYIYWVKQRPGEGLEWIGGVNPTSNPVFNEKFKSKATLTVDTSSSTAYMQLSSLTSVDSAVYYCTRSVLRRGYYFDYWGQGTALTVSS VL: DIQMTQTTSSLSASLGDRVTISCRASQDINNYLNWYQQKPDGTIKLLIYYTSRLQSGVPSRFSGSGSGTDYSLTIANLEQEDIATYFCQQDDTVPVTFGAGTKVELKR |
| 0.808 | 3.41e-05 | 42100 | Mutation 1-6 (antibody, V domains shown, Mutation 1 background; CDRs built) VH: QVQLQQPGAELVKPGASVRLSCQTSVDTFSTYYIYWVKQRPGEGLEWIGGVNPTSNPVFNEKFKSKATLTVDTSSSTAYMQLSSLTSVDSAVYYCTRSLLRRGYYFDYWGQGTALTVSS VL: DIQMTQTTSSLSASLGDRVTISCRASQDIQNYVNWYQQKPDGTIKLLIYYTSRLNSGIPSRFSGSGSGTDYSLTIANLEQEDIATYFCQQDDTLPVTFGAGTKVELKR |
| 0.028 | 2.03e-06 | 72400 | Mutation 1-27 (antibody, V domains shown, Mutation 1 background; CDRs built) VH: QVQLQQPGAELVKPGASVRLSCQTSVNTFTTYYIYWVKQRPGEGLEWIGGVNPTSNPVFNEKFKSKATLTVDTSSSTAYMQLSSLTSVDSAVYYCTRSILRRGYYFDYWGQGTALTVSS VL: DIQMTQTTSSLSASLGDRVTISCRASQDINNYLNWYQQKPDGTIKLLIYYTSRLQSGIPSRFSGSGSGTDYSLTIANLEQEDIATYFCQQDDTIPVTFGAGTKVELKR |
| 0.739 | 4.67e-05 | 63200 | Mutation 1-47 (antibody, V domains shown, Mutation 1 background; CDRs built) VH: QVQLQQPGAELVKPGASVRLSCQTSVDTFTTYYIYWVKQRPGEGLEWIGGVNPTSNPVFNEKFKSKATLTVDTSSSTAYMQLSSLTSVDSAVYYCTRSIIRRGYYFDYWGQGTALTVSS VL: DIQMTQTTSSLSASLGDRVTISCRASQDINNYINWYQQKPDGTIKLLIYYTSRLNSGLPSRFSGSGSGTDYSLTIANLEQEDIATYFCQQDDTIPVTFGAGTKVELKR |

Source: patent US20210403601A1 (FAPON BIOTECH, published 2021)
